# Source: the domain aggregation screens of Martell et al. (2025)
# Test: soluble fraction after stress (log2 fold change); higher = more stays soluble; pooled small domains, quantitative proteomics
# Details: stress: pH 4
# Outline: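 Aggregation propensity is estimated from the fold change in each domain's soluble amount after acid stress. Pooled small-domain libraries were stressed at pH 4, and higher log2 values mean more stayed soluble.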
sequence,measurement,value
HMNTIIIDILPKGLSIAGNQTEPKSLIQQLLMARRADPAQPILLRPAIAVPVQNVVELIDRLTAAGI,soluble fraction (log2),-0.412
HMSSVVVARTWTDTTGDFKVEAELLGVEGGLVRLKKEDGTVLSVPIAKLSTADRTFLQENQP,soluble fraction (log2),0.22
HMEKVTPEMIAEYNALAKKYNSNPEVVFKKKEIQRLKYIYSLMSEKQKETAEVFPNIPPPPPT,soluble fraction (log2),-0.599
HMKGHQASTTWISERVKDIIKEDPTLGARKLQKRLEIHYNIELSYFKVWSGKNLQWMIFMVL,soluble fraction (log2),0.00439
HMIKLSEAEWKVMKLLWEESPKTMMQITNLLKETTGWTKHTVMTFLKRMEEKKAIHYEEGGRAKLYYP,soluble fraction (log2),-0.0902
HMAWIGEHTVTSEDTLSHIALKFYGHATPPYYKLIYEANKAIIGDNMNIIVPGQVLRIPALPEEL,soluble fraction (log2),-0.592
HMEEFGRRLKERMIDKNMTEAELAQKTELWSSILTSYLKGERFPGYYTLLRIAEALDVSIDFLLGLRDEPE,soluble fraction (log2),-2.01
HMGTGTYQVWSANGLGVRMRSGPGTGYRILAVYSVGTSVTVLQKGAYWSYIRVGSRTGYMMNQFLVSG,soluble fraction (log2),-0.268
HMSQNVQDVFLNHVRKSKNPVTVFLVNGVKLQGIITWFDNFSVLLRREGHTQLVYKHAISTVMPSGPIQLF,soluble fraction (log2),0.22
HMDRWTPLIVAVLIEGSHRFGELRSAIGGITPKVLTETLRSMERDGLVTRDQVPGVPPRVDYALTPLG,soluble fraction (log2),-0.434
HMDFDFHALGREIKRKRKDKGWTQEYLAQLLDRTPRSIMYMENRGQHPSLNILFKIATLLEISIDQFFF,soluble fraction (log2),0.158
HMDAKSRFQEWVQAETGITPTYRIIGDSGPDHAKTFIAQVLLGERVVGEGVGSSKRAAEQAAAQAALAAM,soluble fraction (log2),-0.346
HMDYGSLQRAIENQLEVRNYQKPKKFLTKIIQLMETIMVRHGVMVVGLTGTGKTTVIETLSRSMEQ,soluble fraction (log2),-0.529
HMVSPLEKSQSFGSFEISREFARTLGLTSARNWENWAASDSRPINIPYSPNVFYKNKGWIDWSDWLGTE,soluble fraction (log2),-0.124
HMLASDYEEELSVLIKMSHKIAAGDDSLMDDFNDRVTMFESSYPINKATKDLTPVLERVNKFQT,soluble fraction (log2),-0.295
HMSVTMPNLVGLDEQTAVTRINSSNLSYGSTNYVHSDHEAGVVFKQSTPAYTEVDEHTKIYIWVSLGPEE,soluble fraction (log2),-0.145
HMDKMVAVPNVRGIEASEAEATLIAQGLFVEVEKSDSEDANVAYGEVYAQTPKAGNRVEEGTTITIKVRTE,soluble fraction (log2),0.229
HMVENATPEEREALNDIAMEAMGMVKDGKPTSAREFVQSQNLDNDQKILLWSLLDAPTRSALKTAEK,soluble fraction (log2),0.299
HMLSGNLTADAHVHRGLQALSDGRNEDALVDFTKATEVQADFAEAWNKRATVNYLLGRYDAAVLDIQKTLE,soluble fraction (log2),0.0958
HMKNSAAKETILAFLKKNGGELFTQMQIIEKFQKMIPAPVLRITLEELLNKGQVEITSKGKYYLSVKGS,soluble fraction (log2),-0.903
HMQLSASQQQILNHAAVNTDGKLVWFPETLKGGARKKVLDSLFSRALITTDGTHWFVAAEGYEALGIP,soluble fraction (log2),-0.0982
HMEFQISLAAARVNANMTQEDTARAMKVSKTTIVNWEKGKVIPGIPEVEMMSRLYGIPQDYIFLP,soluble fraction (log2),-0.796
HMNTSMIEHMDKSTFIRFVFTNPVTHDQAVAKLMEKHMWFSTEEKAEAEIDKLLNKTNSLIESGGKLTW,soluble fraction (log2),0.22
HMHPKDVPTRRELEVLQAVSEGLSTAEIGLRLDITENTVETFRRRLIQKFDAKNAIDLVVKAMAQGWIKV,soluble fraction (log2),-0.255
HMKHKYWEIKERIKKDILNEVYKKGESIPSERDLAGIYDVTRVTVQKAMAMLVQEGYIERIHGKGMFVLKN,soluble fraction (log2),-0.0581
HMTTIRQQAEVPLSAAGRRFDQALAEMFPAYSRSRLSGWIKAGAATLDGAPAAPRQLLRGGERVELDVELE,soluble fraction (log2),-0.316
HMFHFELNAAKQALEDRKTIDRAKGILMRQRGMSEDDAYKLLRTTAMSQNRKVIDVAQALVTAADLL,soluble fraction (log2),0.292
HMFDPAKQMQRIRKYAGMNRKEFSEWLNIPYRTMTDWELGNRTMPVYLLELIVYKVNHEIANA,soluble fraction (log2),-0.349
HMAEPRVQEVYFEFDGKQVEAGQVVSLIEQAYKNEGHQIGRIKDLKVYINSEEGKAYYVINGDDGEGKYIE,soluble fraction (log2),-0.67
HMGTGADQVSWKTGDKVTHKKWGEGTVVKVSGSGNDKELDIAFPQQGVKRLLASFAPIKKVT,soluble fraction (log2),-0.0102
HMTEFWTGPITTVTKANFADWTLDTNQDRITANVWLTRADSKGLFNITPGKETAFDIVDYLSPLDTEWA,soluble fraction (log2),-1.82
HMQYRQRRGLERMELILDAATRVVAEVGYERTTTNAIATRAGISPGSLYQYFSSKEDIASALWERYAE,soluble fraction (log2),-0.251
HMRHKSNRRLTAAHQIEQQIQKLLMENTMEAKELKESLNFAAKDIDTVLSWLVDKDKVRINAINQYYWT,soluble fraction (log2),-1.28
HMITTWAGKATTDVYGRVDANPKADAVLVIKTGWTVQVVGSKTAPDGGTWYKLIYNGKTMYANSKFIVK,soluble fraction (log2),0.00106
HMEATILTATPEAAGQRLDAFLAETLPELTRSAAQRLIAEGQVAVDGKIPTKSLKLAGGETVSVRLPEPE,soluble fraction (log2),-0.0707
HMEEKNNIIVSYIEDKISELEKASMYVPNENKEKLIMAFKNRNEDIDVIKTRIDTIFNNSVAAYKENME,soluble fraction (log2),-1.32
HMDFEVGTVKWFNTKKGYGFITRDQGEDIFVHFRNIKGQGRRSLSDGERVSFVVTHGDKGLQADQVSP,soluble fraction (log2),-1.18
HMGVAASEVHREKKESSLQWRQSYNVATDQRRQGKTYKEITEFLNGAELKNSKGGTWSISGVRKMLM,soluble fraction (log2),≥ 0.43
HMHQGTIEVGSIVHIEGQKALGTILSLTQREAIVGLGALKTTIPLKRLHLATEAEARRHKKSVTPQEAV,soluble fraction (log2),0.284
HMGEVPVETKDGIKVHVHTVDKSQTAYGISRLYNITLNELYESNPEAKLELSIGQKLYFPVK,soluble fraction (log2),-0.426
HMGNNKLVLSLAVALKNTPNFLKNYNYKISKDKKFIEILLSKQINEVSDIIINLKKNNINIVDLNIKKR,soluble fraction (log2),-0.0131
HMADLKRLNEQIHYLGQYLSTKATYKEFLQANNKKIYRSEHQDEIAKYEEAAQFLKRSSPDGTIPTMKDLR,soluble fraction (log2),0.0861
HMKKTETVRFTTNVTHGTKIKETDVEVVKISNSALPDKVVKNKTEVIGKYATADLFKGDFATENKVTD,soluble fraction (log2),0.192
HMTKEGVNISITADGVQLSTESPNRVSIFNVNGTKVWEGIAPANVSLQKGVYILQTANGNTKFV,soluble fraction (log2),-0.407
HMTENQKNIDLIKIVSLLVHAAKIDENYTNKEKELIINFINNFSKENKQNIKSSEILEEAEKYEK,soluble fraction (log2),-0.0377
HMKALRNQDVVVGKPLAMAVYDQHGVLLLGRGHVVISESQRQQLLERGFSIDAEQLGRLRAAIEATQRV,soluble fraction (log2),0.0921
HMFDVRWEQGYALAAAYAQEYGNLDVPRDYKTADGKKLGRWIQSQEQAYEQKKLSEEQISRLEMIGMQWG,soluble fraction (log2),0.0698
HMEREQNILQGREVVERELRRLGLAEAYTVSDIAKALKFDDEEQFLAKVGFGDIQSRQISGAIALMEKN,soluble fraction (log2),-0.553
HMSNIAQRLVLENALAKLNQEQQTIIDLRIIKGYSVAETARLLGKTESAVRTAQYRALKELAGILEED,soluble fraction (log2),-0.0342
HMQKWILVNKQGRLSGILDHRAFNTRESATAWFQRTSDISGGTIKIDDYYYVLKNEEYKLLKE,soluble fraction (log2),-1.34
HMHNLYAPTQKEVDHARRVVEAAEAAAREGLGVVSLNGKMVDGPVIDRARLVLSRAELSGIRE,soluble fraction (log2),0.274
HMDDLTTASIKQQLKALIDEENKNKPLSDQKLTDALKAQGIDISRRTVAKYREAMNIPGSSKRKRF,soluble fraction (log2),0.0697
HMPINPKVKQIYDTLKDGGADVGSEKEFNDYFFAKGKDGYNNRKEVFNTLREGGADAGKSYEEFAGWLGL,soluble fraction (log2),0.206
HMTSISMDEKVVLGWHQVTTGAANSGMDKVVSNTSGLNVISPTWFKLSDNKGNYISIASKDYVDAAHKKGL,soluble fraction (log2),-0.317
HMKKALTAEQEARVRELYFRGINYYSANRYQDAIAEWRKVLAIDPNHEKAKNNIRQTLILLK,soluble fraction (log2),-0.123
HMRPIDEVFGFFSRPENLTVITPSNLHFNILTPRPLEMKQGAVIDYTIKIFKVPIHWRTLITTYDPPFKFV,soluble fraction (log2),-0.399
HMEEDGAPLESREVLLDQAISQGKGTQWTIATETKLEDHIVSGAYSTDGKVTLAVFSPLGDGKYEFSSSVN,soluble fraction (log2),-0.172
HMIPLSDEETILLKLLEATETHLDALIRGSQLSAAKVSVVLMGMEMKRLVKRLPGQMYQRWD,soluble fraction (log2),-1.55
HMVEGVSLVEIYVDENSKYNGKLLSEIPKKENTLVIMIQRGEQVIIPHGNIRLESGDMLVVSKTEI,soluble fraction (log2),-1.38
HMPQTDDSEPLGKYGRMRLAYLKNQRPVLYNQMLLNGTLWPHLQDVQKTAYEWLERTMTTLLDK,soluble fraction (log2),-0.581
HMDETPESIFAKANELYPKYIKYFYTEQEYYSKVEEYINLYEFQKNSTYILGKDLEEFLEEYITNKQ,soluble fraction (log2),-1.51
HMSIMNLSEKIVVLRKSNGMSQEELAEKLYVSRQAVSRWEMGTAVPDSTNILQLGKLFHVTTDYLLNDEYE,soluble fraction (log2),-0.232
HMENINIRNMGIRAVEAAIISLSPDQRTFTWGATNKKLVTVPYEENPYSALAAFFKTDDGIEIYDAIEKRL,soluble fraction (log2),-0.881
HMNPEDLSGVRKAAILLLTMDDEVTKDVMKGLDEEEIEAIGKEITNLKLIPDHVVHRVQEEFMTKVSK,soluble fraction (log2),-0.375
HMAVSGRMMVYEYIRQQMREGSLLPGSVLDLPAISHKLGISNTPLRDSLIRLEAEGYLTIYPRSKVVIN,soluble fraction (log2),-0.254
HMSVPVNAPMPGTILDIKVKAGAAVKAGDVVMILEAMKMENEISAPQDGTIASIDVRKGDTVNSGDVLYTM,soluble fraction (log2),-0.00195
HMEKLNERLLYLRKNANLTQQQLADKLHISNKTISQWETGRTLPDIVMLVRLAEIYDMKLDELLNQ,soluble fraction (log2),0.074
HMDELNFGNFEGTRIFVQRTARKKSIALSIRDGTIVILAPRHIPNQEIQELITTNTDWIRAKLSQHAETKR,soluble fraction (log2),-0.264
HMTPPPTNSREWMEWGISHGLDANLDRSGQVVFYTDDRVVADAAELSGADLERDNMGQFVIYTGAYDKG,soluble fraction (log2),-0.743
HMNSLFPLSLKYLREQANITQAELAQKLDVTQQAVGRWERGQTSPDYETLKRLSVLFNVSVDYLLGV,soluble fraction (log2),-0.359
HMDDHLSFLAARLPDGASFDTDFDALGIDSFGMIALRAEVEERLGEQIADSDWTKVERPSEILAMLERK,soluble fraction (log2),-1.76
HMNIETHIVPKLLAPIRLQEYGVGIFNNIPTKSALKKALKKQLITVDKTVATTATFIKGGETIELAYQ,soluble fraction (log2),-0.299
HMGGPEVLELEDVKVGSPGPDEIKVTNHAIGLNYIDTYHRSGLYPLKLPSGIGLEAAGKVEEIGSNV,soluble fraction (log2),-0.511
HMPLIPIAIELARHALPSLIGAIAGDKSEKVAKEVVDAALKTTGKTTPDEALHALQADPQLAHEYRLSLL,soluble fraction (log2),-0.466
HMGGYVTGTIDLTKFGYAFVITEESEDDVFVAARNLNTALHGDQVKVLLYARHKGKRPEGEVVEIISRSRA,soluble fraction (log2),-1.4
